From the supplement of paper PMC9170038

Test system: MS2 coat protein
Assay: apparent KD of MS2 coat protein; designed switch direction (-1 OFF switch, 1 ON switch): -1; higher = weaker reporter binding
Outline: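 For each design, the apparent KD is the median over clusters of curves fitted to normalised cluster fluorescence. Clusters held RNA switches with common flanks, transcribed on Illumina chips by stalled E. coli RNA polymerase. These were titrated with SNAP-549-labelled MS2 coat protein, doubling from 0.7 or 1.5 nM to 3 µM, without input, with 200 uM small-molecule ligand, or with an oligonucleotide input.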

[1] = input ligand: microRNA oligo, concentration not stated
[2] = Eterna round: R95, input ligand: microRNA oligo, concentration not stated
[3] = Eterna round: R95, input ligand: FMN 200 uM
[4] = Eterna round: R95, input ligand: none

Sequence | apparent KD of MS2 coat protein (input ligand: FMN 200 uM) [nM] | apparent KD of MS2 coat protein (input ligand: none) [nM] | apparent KD of MS2 coat protein [1] [nM] | apparent KD of MS2 coat protein [2] [nM] | apparent KD of MS2 coat protein [3] [nM] | apparent KD of MS2 coat protein [4] [nM]
GGCAUGCAAGGAUAUACUUACAGUGAUGUUCGAAUAAGGCUACUUGAGGAUCACCCAAGUAGAAGGUGCAUGCC [Exclusion 2 (Mod JL EX2 4.74 Vienna UCT mod of Mamaed)] (Eterna round: R97, puzzle: Exclusion 2) | 203 | 26.8 | – | – | – | –
ACAUGUUGCGCAGGAUAUGAGACACAUGAGGAUCACCCAUGUGGCUACAUGUCAUACCAAGCGUCUCAGAAGGGUGUGAACAUG [Ex NG2 #34] (Eterna round: R96, puzzle: Exclusion NG 2) | 18.7 | 18.1 | 11.7 | – | – | –
UGCAGACGAGGAUAUGAUUAAUAAUACAUGAGGAUCACCCAUGUAAUACUGAUCUAUGGAUCAGAAGGUGUCUGCU [E5/6-B3] (Eterna round: R97, puzzle: Exclusion 5) | 20.8 | 24.1 | – | – | – | –
UAAAGUAUAUAGGAUAUCUAGCUGGUAACAGCUAGAGAAGGAUGUACAUGAGGAUCACCCAUGUAAAUCGUGAA [Ex6/13-A2] (Eterna round: R97, puzzle: Exclusion 6) | 20.5 | 16.9 | – | – | – | –
CCGGAAGUACAGGAUAUCGUAUCGGAUACGAUACGAGAAGGGUAUACAUGAGGAUCACCCAUGUGUCCUACCGG [Fiskers Ex 6 - 55] (puzzle: Exclusion 6) | – | – | – | 19.6 | – | –
AUAAUGUCAGGAUAUACUAAUGAUGAAUGAUUAGACAUUAUGUAGAAGGGACAUGAGGAUCACCCAUGUAAUAU [EX4 #2] (Eterna round: R97, puzzle: Exclusion 4) | 39.9 | 26.8 | – | – | – | –
UUAAUUAAUUAACGCAGCAAGAUCACAUGAGGAUCACCCAUGUAGGAUAUCAGCUCGUUUAGAGCUGAGAAGGACAUAGCUGCG [ExNG3/1-A2] (Eterna round: R96, puzzle: Exclusion NG 3) | 87.6 | 18 | 11.1 | – | – | –
GUCACAUGGACAUAGGAUCACAUGAGGAUCACCCAUGUGACUAACAAGCUUUUUGUUCGUCUUAUGUCUAUGUGAAU [Stov1/16-B2] (Eterna round: R97, puzzle: Sensor, turn-off variant 1) | 13.2 | 12.3 | – | – | – | –
GAACAAGCGUGAGGCUCGUCUUAAAGAGCCUCAUGAAAAACAUGAGGAUCACCCAUGUAAAAUGAUCGAAAGAUCAA [Mat - Sensor v2 - var 2 - Mod - D131] (Eterna round: R96, puzzle: Sensor v2, turn-off variant 2) | 14.9 | 16.9 | 12.7 | – | – | –
CCGGUUGGCGCAGGAUAUACAUGAGGAUCACCCAUGUUCAUCAGGAUCACCGAUGAGUUUUUGUUGUAGAAGGGUGGCCCGGCC (Eterna round: R96, puzzle: Exclusion NG 2) | – | – | 24.2 | – | – | –
UAUAAACAUGAGGAUCACCCAUGUGAGGAUAUCUAAACCAGAGCGGAUCUCUGGACCAAGAGAAGGUGCAUGGU [ElNandoxlusion 10 - Jieux - Exclusion 1] (Eterna round: R97, puzzle: Exclusion 1) | 66.9 | 31.7 | – | – | – | –
UGUGCGUAUGUGAGGAUAUGCUGGUCCUUGGAUCGGCAGAAGGCACAUGAGGAUCACCCAUGUGGUGUCGUACA [salish99_Bmod_ex4_086] (puzzle: Brourd's mod of Exclusion 4) | – | – | – | 204 | – | –
CACUGGACAGGAUAUGUUCUUGAGCACUUGAGGAUCACCCAAGUCAUCAAGAACUCAGGCACAGAAGGGUUUAUGU [salish99_ex5_r4_014] (Eterna round: R97, puzzle: Exclusion 5) | 44.5 | 15.8 | – | – | – | –
AUAUACGUUGAGGAUAUGCGAAUAAGUAUAGUUGCAGAAGGCGACACAUGAGGAUCACCCAUGUUCAUGGACAC [LRO-Ex6-03] (puzzle: Exclusion 6) | – | – | – | 26.6 | – | –
CAUGAUUGACGAGGAUAUUGUUCUACAUCACGACGAGAAGGCGUCUGUCACAUGAGGAUCACCCAUGUGAGACUGGUGAAUGAG [Ex NG1 #81] (Eterna round: R96, puzzle: Exclusion NG 1) | 36.4 | 20.4 | 17.1 | – | – | –
UUUUACAAGCUAAGAUCCUACAUGAGGAUCACCCAUGUGGUCCGGUGACGUGAGUCACCGGACUUAGCUCGUCUUGU [JL TOV1 3.70] (Eterna round: R97, puzzle: Sensor, turn-off variant 1) | 80.3 | 88.2 | – | – | – | –
CAUGUGUAAGGAUAUGACAAUGGUAUCGAAAGAUACCAUUGUCAGAAGGUACAUGAGGAUCACCCAUGUAGAUC [Ex4-3: 19] (puzzle: Exclusion 4) | – | – | – | 60.8 | 342 | 86.3

Sequence | apparent KD of MS2 coat protein (input ligand: FMN 200 uM) [nM] | apparent KD of MS2 coat protein (input ligand: none) [nM] | apparent KD of MS2 coat protein [1] [nM] | apparent KD of MS2 coat protein [2] [nM] | apparent KD of MS2 coat protein [3] [nM] | apparent KD of MS2 coat protein [4] [nM]
GCUUGAGCAGGAUAUACAUGAGGAUCACCCAUGUGCUUGAGCUUGAUCGAGUUCGAGUGUAGAAGGGUUCGAGU [-26.9, -23.9 kcal, 24% A, 1 bis, 1 bis] (Eterna round: R97, puzzle: Exclusion 3) | 20.8 | 19.7 | – | – | – | –
CAAUUCCGAGGAUAUACAUGAGGAUCACCCAUGUCGGGCCUCAGCGUUUAGCGCCUAAGUAGAAGGUGGGUUUC [JL Riri mod 4] (puzzle: Exclusion 3) | – | – | – | 37.1 | – | –
ACUUACUGAGGAUAUACAUAGAUUUACAUGAGGAUCACCCAUGUUCCUCUAAGUAUAUAUGUAGAAGGCAGAAGGG [Mat - Exclusion 5 - JL Mod - D41] (Eterna round: R97, puzzle: Exclusion 5) | 55.6 | 166 | – | – | – | –
UUACGGAUAGAGGAUAUAUUAAGGAAGGUUACGAUAGAAGGCUAGACAUGAGGAUCACCCAUGUAUAUUGGGAU [JR_Ex6_Sub072] (Eterna round: R97, puzzle: Exclusion 6) | 172 | 144 | – | – | – | –
GUCAGCUCGUGAGGAUAUAUAUACAUGAGGAUCACCCAUGUAAGAUCAGGCUUCGGCCAAUGUAUAUAGAAGGCACGAGCUGAU [ENG2/11-A2] (Eterna round: R96, puzzle: Exclusion NG 2) | 847 | 1120 | 695 | – | – | –
GUGAAGUGAGGAUAUAUGAGAGAGGCUGAACCGGACGAGAAGUAGAAGGCACAUGAGGAUCACCCAUGUAAGGG [JR_Exclu4_Sub024] (puzzle: Exclusion 4) | – | – | – | 255 | 293 | 372
GAUUAACAUGAGGAUCACCCAUGUGAGGAUAUGGACUUGCCCACUUUCCCAUUAGAGUCUAGAAGGCGCAUCUG [1986#24] (Eterna round: R97, puzzle: Exclusion 1) | 37.2 | 37.9 | – | – | – | –
ACAUGAGGAUCACCCAUGUACAGGGUUUAGUUUCAUUGUUUGAAGGAUAUACUUAGUUAGUUGUUGUAGAAGGUCAUAUUUUAU [JR_ExcNG3_Sub002] (Eterna round: R96, puzzle: Exclusion NG 3) | – | – | 156 | – | – | –
UUUUUAGAUGAAGGAUAUACUUAACAUGAGGAUCACCCAUGUGGUGUUGUGAGUGAGUGAGUUUAGUAGAAGGUCAAGUAUUUU [JMF's solution 45] (Eterna round: R96, puzzle: Exclusion NG 2) | 769 | 404 | 377 | – | – | –
CUGUACAUAGGAUAUAGUUGUUUUUACAUGAGGAUCACCCAUGUUACUCCUCUCUCUCUUCUAGAAGGAUGUUUUU [JR_E5_Sub007] (Eterna round: R96, puzzle: Exclusion 5) | 70.7 | 67 | 50.7 | – | – | –
CAACGUAGUAAGGAUAUCCGGCAAAAGGCUACAGGAGAAGGUACUACAUGAGGAUCACCCAUGUGGAACUGUAA [EX6 B.7] (Eterna round: R97, puzzle: Exclusion 6) | 16.8 | 16.1 | – | – | – | –
GCACUGACAGGAUAUACAUGAGGAUCACCCAUGUGACCCUUGGAGUACUCGCGUACUCGUAGAAGGGUCUGUGC [Omei Ex3 Model Bachelor's Dilema v37] (Eterna round: R97, puzzle: Exclusion 3) | 95.8 | 35.9 | – | – | – | –
AGAUCACAUGAGGAUCACCCAUGUCAGGAUAUCGUCACUGGAGCUUCGGCUCCAGUGACGAGAAGGGACAUAAU [E1/2-A1] (Eterna round: R97, puzzle: Exclusion 1) | 161 | 554 | – | – | – | –
GAUAGAGCAGGAUAUUCAAUAUAUCACAUGAGGAUCACCCAUGUCCAGCGAAAGCUGGAGGGAGAAGGGCUCUAUC [Mat - Exclusion 5 - Eli mod - D99] (puzzle: Exclusion 5) | – | – | – | 366 | 77.6 | 262
GUGUAGUGAGGAUAUACAUGAGGAUCACCCAUGUGAAUAAGAUAGAAUAAGAUAAAGUGUAGAAGGCACAGUGU [Excluse me!!! 3 - Jieux - Exclusion 3] (puzzle: Exclusion 3) | – | – | – | 35.7 | 39.5 | 41.9
CUACCCUGAGGAUAUCCACCGUGAUACAUGAGGAUCACCCAUGUUAAUGCCUGAGUUCCCGGAGAAGGCAGAUUCC [Megrez2] (Eterna round: R97, puzzle: Exclusion 5) | 27.2 | 30.5 | – | – | – | –
CGGUCGUCGUGAGGAUAUACAUGAGGAUCACCCAUGUUUCUCGGGUCGGUCGUCCGGUCGGUGGUGUAGAAGGCGCGGUGGCUG [random 3, A 14%] (Eterna round: R96, puzzle: Exclusion NG 2) | 125 | 100 | 95.6 | – | – | –
